Test results from US20200277373A1 (DENALI THERAPEUTICS, published 2020).
Where a chain is given by its changes, count along the chain named. Values belong to the binder of their own block, whether it stands above or below them.

Assays:
[1] = target: T1, Human TREM2 protein, on cells (human, UniProt Q9NZC2 19-230); test: cell-based or functional assay
T1 sequence: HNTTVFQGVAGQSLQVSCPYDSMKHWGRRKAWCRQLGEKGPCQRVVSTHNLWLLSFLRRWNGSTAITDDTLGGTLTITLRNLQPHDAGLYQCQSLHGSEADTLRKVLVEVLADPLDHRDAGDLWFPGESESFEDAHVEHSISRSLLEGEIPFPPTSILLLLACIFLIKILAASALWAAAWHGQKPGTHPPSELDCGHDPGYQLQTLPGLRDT

Mouse TREM2, on cells [2] = target: T2, Mouse TREM2, on cells (mouse, UniProt Q99NH8 19-227); test: flow cytometry, 293F cells overexpressing mouse TREM2
T2 construct: whole, on cells; also called mouse TREM2 HEK
T2 sequence (looked up): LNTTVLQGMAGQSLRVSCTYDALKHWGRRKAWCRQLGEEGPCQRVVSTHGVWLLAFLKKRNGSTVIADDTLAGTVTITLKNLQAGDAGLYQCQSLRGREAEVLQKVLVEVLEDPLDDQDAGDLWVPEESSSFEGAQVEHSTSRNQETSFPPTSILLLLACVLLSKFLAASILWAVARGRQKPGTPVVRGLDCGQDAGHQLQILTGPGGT
Experimental: (§1) After labeling, cells were washed twice with 1×PBS. […] Mixed cell lines were seeded at 300,000 cells per well in a 96-well round-bottom and incubated 20 minutes at room temperature. After incubation, cells were centrifuged and test anti-TREM2 antibodies were added, then incubated for 45 minutes on ice. After incubation, cells were centrifuged and washed with FACS buffer three times.
(§2) The data in Table 2 is presented as fold over binding (FOB).

[3] = target: T3, His-tagged TREM2 ECD (ecto domain residues 19-172 of human TREM2, C-terminal 6X-His tag) (human, UniProt Q9NZC2 19-172); test: Table 1 Kd; Biacore, TREM2-His analyte (presumed)
T3 construct: Made in Expi293F cells; the mouse Ig kappa secretion signal is not part of the mature protein; Biotinylated for the Octet binning; also called TREM2-His; TREM2-His protein
T3 sequence: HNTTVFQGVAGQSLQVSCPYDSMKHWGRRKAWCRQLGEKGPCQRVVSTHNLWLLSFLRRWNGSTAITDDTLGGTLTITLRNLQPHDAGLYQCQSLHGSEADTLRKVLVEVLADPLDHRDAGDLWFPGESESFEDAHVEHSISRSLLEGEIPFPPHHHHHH
Experimental: Anti-murine Fc antibody (obtained from GE Healthcare) was immobilized on the surface of a CM5 chip (obtained from GE Healthcare) through amine-coupling to reach about 6,000 to 8,000 response units (RU). The surface was activated by injection of a mixture of 1-ethyl-3-(3-dimethylaminopropyl)-carbodiimide (EDC) and N-hydroxysuccinimide (NHS), both obtained from GE Healthcare, for 7 minutes. Anti-murine Fc antibody was diluted in sodium acetate (pH 5.0) at 25 μg/mL and injected for 10 minutes at a flow rate of 5 μL/minute, followed by injection of ethanolamine (obtained from GE Healthcare) for 7 minutes.
Purified anti-TREM2 hybridoma (20 μg/mL) was captured to reach 1000-1500 RU. A range of serially-diluted TREM2-His protein (e.g., 3.4 nM to 300 nM) was injected at a flow rate of 30 μL/minute, using either single-cycle kinetics methods. Sensorgrams were fitted using a 1:1 Langmuir model to estimate kₒₙ and koff.

[4] = target: T1, Human TREM2 protein, on cells; test: flow cytometry, HEK293 cells overexpressing human TREM2
Experimental: as §1, §2

Mouse TREM2, on cells [5] = target: T2, Mouse TREM2, on cells; test: Table 5, cell binding: Mouse TREM2 HEK
[6] = target: T3, His-tagged TREM2 ECD (ecto domain …); test: Biacore T200, antibody captured, antigen injected, 1:1 model
Experimental: To measure TfR binding, anti-human-Fab was immobilized on a CM5 chip, and the TREM2/TfR-binding protein was captured. Full-length human TfR or human TfR apical domain at serial dilution (e.g., concentrations of 1-1000 nM) was flowed over the chip (180 second association time) and then allowed to dissociate. Fitting was performed using a 1:1 binding model. To measure TREM2 binding, anti-human-Fc antibody was immobilized on a CM5 chip, and the TREM2/TfR-binding protein was captured. A range of concentrations of recombinant TREM2-His protein were flowed over the chip, and allowed to associate and dissociate. The resulting sensograms were fitted using a 1:1 Langmuir model to estimate kₒₙ and koff (FIG. 10).
Biacore Series S CM5 sensor chips were immobilized with a mixture of two monoclonal mouse anti-Fab antibodies (Human Fab capture kit from GE Healthcare). Serial 3-fold dilutions of each antigen were injected at a flow rate of 30 μL/min. The binding of the antigens to captured antibody was monitored for 30 to 180 seconds and then their dissociation was monitored for 30-300 seconds in HBS-EP+running buffer (GE, # BR100669). Binding response was corrected by subtracting the RU from a blank flow cell. A 1:1 Languir model of simultaneous fitting of kₒₙ and koff was used for kinetics analysis.

[7] = target: T1, Human TREM2 protein, on cells; test: cell-based or functional assay; remark: listed apart in the source

B1: 7B10.A2 (antibody, V domains shown)
VH: EVQLQQSGPELVKPGASVKMSCKASGYTFTDYNMHWVKQSHGKSLEWIGYINPNNGGTTYNQKFKGKATLTVNKSSSTAYMELRSLTSEDSAVYYCATYNNHYFDSWGQGTTLTVSS
VL: DIQMTQTTSSLSASLGDRVTISCSASQGISNYLNWYQQKPDGTVKLLIYYTSNLHSGVPSRFSGSGSGTDYSLTISNLEPEDIATYYCQQYSNLPYTFGGGTKLEIK
- pSyk FOB (30 nM Ab) [1]: 6.89 fold over background

B3: 3D3.A1 (antibody, V domains shown)
VH: EVQLQQSGPELVKPGASVKISCKTSGYTLSEYTMHWVIQSHGKSLEWIGGVIPNSGGTSYNQKFRDKASLTVDKSSSTAYLELRSLTSEDSAVYYCARGDDSYRRGYALDYWGQGTSVTVSS
VL: DIVMSQSPSSLAVSVGEKVTMSCKSSQSLLYSSNQKSYLAWYQQKPGQSPKLLIYWASTRESGVPDRFRGSGSGTDFTLTISSVKAEDLAVYYCQQYFSYPPTFGGGTKLEIK
notes: Mouse hybridoma antibody, Ig2a, k; also called RS8.3D3.A1
- pSyk FOB (30 nM Ab) [1]: 10.3 fold over background
- FOB (fold over binding) (Mouse TREM2, on cells [2]): 8.4 fold
- Kd [3]: 7.43 nM
- FOB (fold over binding) [4]: 11.7 fold
- Kd [6]: 40 nM
- koff [6]: 0.019 s⁻¹
- kon [6]: 480000 M⁻¹ s⁻¹

B4: 21D11 (antibody, IgG2a, V domains shown)
VH: QVQLQQSGAELARPGASVKLSCKASGYTFTSYWIQWVKQRPGQGLEWIGTIYPGDGDARYTQKFKGKATLTADKSSSTTYMQLNSLASEDSAVYYCARNGITTAGYYAMDYWGQGTSVTVSS
VL: DIQMTQSPASLSVSVGETVTITCRASENIYSNLAWYQQKQGRSPQLLVYAATNLADGVPSRFSGSGSGTQYSLKINSLQSEDFGYYYCQHFWGTPYTFGGGTKVEIK
notes: Mouse hybridoma antibody, IgG2a, k; also called 21D11.B1; RS8.21D11.B1
- pSyk FOB (30 nM Ab) [1]: 1.68 fold over background
- FOB (fold over binding) (Mouse TREM2, on cells [2]): 1.5 fold
- Kd [3]: 0.525 nM
- FOB (fold over binding) [4]: 8.4 fold
- binding result (Mouse TREM2, on cells [5]): no binding

B7: 21D4.D1 (antibody, V domains shown)
VH: QVQLQQSGADLLRPGVSVKISCKGSGYTFTDHAMHWVKQSHAESLEWIGVISTYSGDTGYNQKFKGKATMTVDKSSSTAYLELARLTSEDSAIYYCAREGHYDDAMDYWGQGTSVTVSS
VL: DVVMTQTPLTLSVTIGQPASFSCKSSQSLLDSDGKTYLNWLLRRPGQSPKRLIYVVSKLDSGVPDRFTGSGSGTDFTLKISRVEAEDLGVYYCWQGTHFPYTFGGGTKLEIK
notes: Mouse hybridoma antibody, Ig2a, k; also called RS8.21D4.D1
- FOB (fold over binding) (Mouse TREM2, on cells [2]): 4 fold
- Kd [3]: 1.82 nM
- FOB (fold over binding) [4]: 12.3 fold
- binding result (Mouse TREM2, on cells [5]): no binding

B8: 42E8.H1 (antibody, V domains shown)
VH: DVQLQESGPGLVKPSQSLSLTCTVTGYSITSDYAWNWIRQFPGNKLEWMGYINYSGRTIYNPSLKSRISITRDTSKNHFFLQLISVTTEDTATYYCARWNGNYGFAYWGQGTLVTVSA
VL: DVVMTQNPLSLPVSLGDQASISCRSSQSLVHINGNTYLHWYLQKPGQSPKLLIYKVSNRFSGVPDRFSGSGSGTDFTLKISRVEAEDLGVYFCSQTTHALFTFGSGTKLEIK
notes: Mouse hybridoma antibody, Ig2a, k; also called RS8.42E8.H1
- pSyk FOB (30 nM Ab) [1]: 7.17 fold over background
- FOB (fold over binding) (Mouse TREM2, on cells [2]): 3.5 fold
- Kd [3]: 17 nM
- FOB (fold over binding) [4]: 10.6 fold
- binding result (Mouse TREM2, on cells [5]): no binding

B11: 26D2.D1 (antibody, IgG2a, V domains shown)
VH: EVQLQQSGPELVKPGASVKMSCKASGYTFTSYVMHWVKQKPGQGLEWIGYINPYTDGTKYNEKFKGKATLTSDKSSSTAYMDLSSLTSEDSAVYYCARGEVRRYALDYWGQGTSVTVSS
VL: DIQMTQSSSSFSVSLGDRVTITCKASEDIYNRLAWYQQKPGNAPRLLISGATSLETGVPSRFSGSGSGKDYTLSITSLQTEDVATYYCQQYWSTPWTFGGGTKLEIK
notes: Mouse hybridoma antibody, IgG2a, k; also called RS8.26D2.D1
- pSyk FOB (30 nM Ab) [1]: 1.73 fold over background
- FOB (fold over binding) (Mouse TREM2, on cells [2]): 2.8 fold
- Kd [3]: 15 nM
- FOB (fold over binding) [4]: 4.9 fold
- binding result (Mouse TREM2, on cells [5]): no binding

Other lines, results leading:

- pSyk FOB (30 nM Ab) [1]: 1.23 fold over background
- FOB (fold over binding) (Mouse TREM2, on cells [2]): 0.8 fold
- Kd [3]: 0.898 nM
- FOB (fold over binding) [4]: 1 fold
- binding result (Mouse TREM2, on cells [5]): no binding
B2: 40H3.A4 (antibody, V domains shown)
VH: EVQLQQSGAEVVKPGASVKLSCTASGFNIKDTYMHWVKQRPEQGLEWIGRIDPANGNTKYDPKFQGKATITADTSSNTAYLQLSSLTSEDTAVYYCATLFAYWGQGTLVTVSA
VL: DIVMTQAAFSNPVTLGTSASISCRSSKSLLHSNGITYLYWYLQKPGQSPQLLIYQMSNLASGVPDRFSSSGSGIDFTLRINRVEAEDVGVYYCAQNLELPTFGSGTKLEIK
notes: Mouse hybridoma antibody, isotype N.D; also called RS8.40H3.A4

- pSyk FOB (30 nM Ab) [1]: 5.02 fold over background
- FOB (fold over binding) (Mouse TREM2, on cells [2]): 1.7 fold
- Kd [3]: 2.41 nM
- FOB (fold over binding) [4]: 11.5 fold
- binding result (Mouse TREM2, on cells [5]): no binding
B5: 57D7.A1 (antibody, V domains shown)
VH: QVQLKESGPGLVAPSQSLSITCTVSGFSLSRYSVYWVRQPPGKGLEWLGMIWGGGNTDYNSALKSRLSISKDNSKSQVFLKMNSLQTDDSAMYYCVQYGGMDYWGQGTSVTVSS
VL: DVLMTQTPLSLPVSLGDQASISCRSSQSIVHSNGNTYLEWYLQKPGQSPKLLIYKVSNRFSGVPDRFSGSGSGTDFTLKISRVEAEDLGVYYCFQGSHVPYTFGGGTKLEIK
notes: Mouse hybridoma antibody, Ig2a, k; also called RS8.57D7.A1

- pSyk FOB (30 nM Ab) [1]: 1.12 fold over background
- FOB (fold over binding) (Mouse TREM2, on cells [2]): 1.3 fold
- Kd [3]: 2.67 nM
- FOB (fold over binding) [4]: 7.6 fold
- binding result (Mouse TREM2, on cells [5]): no binding
B6: 51D4 (antibody, IgG2a, V domains shown)
VH: QVHLQQSGPEVVRPGVSVKISCKGSGYTFTDYGMHWVKQSHAKSLEWIGVISTYNGNTSYNQKYKGKATVTVDKPSSTAYMELVRLTSEDSAIYYCARDFGYVPFDYWGQGTTLTVSS
VL: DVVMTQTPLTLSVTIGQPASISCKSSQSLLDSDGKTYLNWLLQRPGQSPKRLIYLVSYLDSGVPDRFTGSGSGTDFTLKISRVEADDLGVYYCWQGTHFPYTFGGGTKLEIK
notes: Mouse hybridoma antibody, IgG2a, k; also called 51D4.A1; RS8.51D4.A1

- pSyk FOB (30 nM Ab) [1]: 4.67 fold over background
- FOB (fold over binding) (Mouse TREM2, on cells [2]): 1.5 fold
- Kd [3]: 12.8 nM
- FOB (fold over binding) [4]: 10.3 fold
- binding result (Mouse TREM2, on cells [5]): no binding
B9: 26E2.A3 (antibody, V domains shown)
VH: QVHLQQSGSELRSPGSSVKLSCKDFDSEVFPISYMSWIRQKPGHGFEWIGDILPSIGGRIYGVKFEDRATLDADTVSNTAYLELNSLTSEDSAIYYCARKDYGSLAYWGQGTLVTVSA
VL: B8 VL with N7T, H39Q, Y41F, D75A, T96S, A99V, L100P, F101Y, S105G
notes: Mouse hybridoma antibody, Ig2a, k; also called RS8.26E2.A3

- pSyk FOB (30 nM Ab) [1]: 11.6 fold over background
- FOB (fold over binding) (Mouse TREM2, on cells [2]): 1.2 fold
- pSyk (nM), EC50 [7]: 26.5 nM
- Kd [3]: 63.4 nM
- FOB (fold over binding) [4]: 7 fold
- binding result (Mouse TREM2, on cells [5]): no binding
B10: 49H11.B1 (antibody, IgG3, V domains shown)
VH: B8 VH with K45R, N53S, Y54F, R57S, I59S, H78Q, I84N
VL: B8 VL with N7T, T96S, A99V, L100T
notes: Mouse hybridoma antibody, IgG3, k; also called RS8.49H11.B1
